test: soluble on expression in E. coli; label from the status in PepcDB or PDB records

Question: For “MGSDKIHHHHHHMKGGTSKFKTHTETLYKKKKWSSVSEKRPQKCPSQCLESKQPQVSVLGKRRRASQTPAQETLESEWPQKAKRKKRRREPQTPAQETLESEWPQKAKKKKRRGEPQTPTQESLESEQPPVSLLGKRRRESQTPAQENSESEQPRKAKRRRKKRKGSQQPTSSLLKTPETFLKAKKTTSAHKKKKNSVLEVDMETGIILVDKENMENLLETSRKDVDIVYVDMSKGQRSAKVRETGELPAAKPQEHGCRELLGDVRSRKKQKHLQKVAPWDVVQGSQPESISLPPSEPLSSEDLEGKSTEAAVFCKKKSKKNVFRSQELEPIPDSLDDSETISERLDSTHHGGAVGAGEECESTKESHSIKKKSKKKKHKSVALATSSDSASVTDSKAKNALVDSSEGSGAVREEDVDHRPAEAEAQACSTEKHREAMQRLEPTHEEESNSESASNSAARHISEDRRESDDSDVDLGSAVRQLREFIPDIQERAATTIRRMYRDDLGRFKEFKAQGVAIRFGKFSAKENKQIEKNVQDFLSLTGIESADKLLYTDRYPEEKTLITNLKRKHAFRLHIGKGIARPWKLVYYRAKKIFDVNNYKGRYNEEDTKKLKAYHSLHGNDWKKIGAMVARSSLSVALKFSQIGGTRNQGAWSKAETQRLIKAVEDVILKKMSPQELRELDSKLQEDPEGRLSIVREKLYKGISWVEVEARVETRNWMQCKSKWTEILTKRMTHGGFVYRGVNALQAKITLIERLYELNVNDANEIDWEDLASAIGDVPPPFVQAKFYKLKAACVPFWQKKTFPEIIDYLYKNSLPLLKEKLDKKMKKKDGQIQTPAAPKQDFLFKDIFHCDDDSDEGSPEEPSASDVQ”, which “soluble on expression in E. coli” value is on record?
Answer: The value was “not soluble”.

Question: Which “soluble on expression in E. coli” value does the source give for “MGSDKIHHHHHHMTARNILSYSYEEYVEKITAFHGYPAPGVLIGGFMVDLAVKNLPEGILYDAICETRTCLPDAVQLLTPCTFGNGWLTVLPMGLFAVSLYDKFTGEGVRVFLDVEKMGPWQEIRNWFLKLKTKKEQDSERLFKEIREAGPDILELRNVKLKPGFLEKKHKGKIVLCPQCREAYPAQDGELCLSCQGGSPYL” here?
Answer: The value was “not soluble”.

Question: With “MSSFLFENAAILDGQARELRENQHVLVEANRIIEVSDKPIKSKNSERINVNGMTLMPGLIDAHVHVKATIVNVGRLSDIPVSYLTADAGKFMRQMLMRGFTTVRDAGGADRGLADAVTDGLLIGPRLFVSGLSLSQTGGHGDMRPVTSDSHPITCACLASTQQLGRIADGVDECRRAARDELRKGAHQIKIMAGGGVASPNDPIQNTQYSVEEIRAICEEAAAAHTYVMAHAYVPAAISRAIENGVRTIEHGNLLDAEAAKVMSKHNAFLVPTNVTYRALYKHGKSFGFPEVSIGKLKDVLDVGLSAIEIAKNNGVKIGHGSDLLGECQVYQSDELSIKAEVVGNYEAIRHATEVNAEILNMTGELGVIKENALADILIVDGNPIKDVGFLSNDAKFIPNNNER” as the sequence, how does the “soluble on expression in E. coli” value read?
Answer: Its value is “soluble”.

Question: Which “soluble on expression in E. coli” value does the source give for “MKELKQAEQIRTWVQSILTDESSGHDWHHVSRVADLAAYIGEKEKADLFIVETAALVHDLIDVKLPDTVRLSVSEVYDQLVFFGVGKENADRVIHIITRMSFRDRGKLAKEPLSIEGKAVQDADRLDAIGAVGIARAFMFAGAKGHGLYGDEQSAYAHFFHKLLRLKDMMNTDTARELAEERHNFMLQFVRQLEKDIPGIDAETSLEHHHHHH” here?
Answer: The value was “soluble”.

Question: Which “soluble on expression in E. coli” value does the source give for “MGSDKIHHHHHHMSEIETIQAYYAASLGKDGRITRTQRQILAAALDLFAEKGYEEVGTREIAERAGVAEGTLFHNFVNKNGILDAIMQPIVQNILPTMLNTLDQAVLDSPNQTLQAFVVALVRDRVAFVTRNRASLAVILSQFFNNAQDRAAVLGMVSPSILAQANEAMDRLKAARELVDWPNRMILQLVFSTIGGYLVEQVLYPQLDDLSDEQLIHYLSDFLVNGLSPRRIPLQDDNTAS” here?
Answer: The value was “not soluble”.

Question: With “MSDYAESYVSDCEVDPEELKNQSLFDKPRGVPRWLGKPHNSVKERLHNSVKDRTFIQKTVSSSEPLSRNAMDRIEASLTDNLNLDVVYSLNKKNRWQDAKTTFLLAGAPENVNAEVVEKNGLAQFGFIYPEKSTFAVHSRVLNKENKQGEFEIRSAITSSARGQDYSNFLPNTREFSKKANAKVMTLRSEEVDEDSKRQPTVSYNIYKTHRSQDVVGKEMFKAKVVSKSRRHRQNKKVDMENYDDLDEEFEDDEDEVVDSHRPTGVFDLAAFKVRTQSKQAHPKNRKDSELSYDMVDYDELETGSEYSQQFNVQEYLNQEGYTFIQADVTFVKLTEPFEDQINQLRLEGDLRVKDLQKNQYLIDISKRCQPNGTTQDGETTAVIVLTHLKHKTYNMIFNSTIGADPIRRNGENLRKIVSSAPTVLEVITKISGDVAEDKQLISRIKTSEKFYGRPSTSVDWNDLSLQRATCPNQYDNATWANSEELSVVGGKLEWDDLVAMVKKENNLVTCYSSDDFCGFCNRKKKSFELFLIKSSSETKIKCTECLRNEFYREFIARRLPIDLQTETADEMEYLPIFIPLTLLNLYIRTVAETIYKDLGATGDFEKCPSCKSTIFFEEPGNENKTQNRSCPCGYSWCRDCKGVPHWPMNCENYAEWEKKWHLRYAMMNAQGTGTVTLLQFTCHCKTVYYCLLPTKRVNCPGCRESVNLETMNTMYRQFYYSYPPRYRKWEKQYHEENKDTDRHPYQPLAKVCWEIDKIPAIKASVIETCGAARDVRFDLKFRNRVIKQEQVLIKKSILTSEVLENILGTIPYLVENVTAWMHMSNHQDKNLKSILESMIADRKDLVYYLESENEIEIEKCVKILRAKIDSVVSIVEKNMKNC” as the sequence, how does the “soluble on expression in E. coli” value read?
Answer: The value was “not soluble”.

Question: For “MKLNRAIGVIDSGVGGLTVAKELIRQLPKERIIYLGDTARCPYGPRSREEVRQFTWEMTEHLLDLNIKMLVIACNTATAVVLEEMQKQLPIPVVGVIHPGSRTALKVTNTYHVGIIGTIGTVKSGAYEEALKSINNRVMVESLACPPFVELVESGNFESEMAYEVVRETLQPLKNTDIDTLILGCTHYPILGPVIKQVMGDKVQLISSGDETAREVSTILYHSKMLNEGEEQSDHLFLTTGKIGLFKEIASKWFGQPIENVKHIHLEKE”, which “soluble on expression in E. coli” value is on record?
Answer: Its value is “not soluble”.

Question: For “EKGFKVVVLESAKVGFGATGRNGGQIVNSYSRDVDVIESRYDQNQAKALCDMIFEGGDIIRGLIDKYDINCDYKQGGLFTALNSKQLKGLEEHKKNWERYGNDQLTLLDAGEVEQAVGTKVYTGGLLDMRGGHIHPLKLALGEAAAFISLGGQIFEQSAVVSIDKGMNPVVKTAQGSVKSK”, which “soluble on expression in E. coli” value is on record?
Answer: The value was “not soluble”.

Question: For “MGSDKIHHHHHHMSLPSIKTTNSYCVVLWCDQGSATINAPDRVVQVMAGDVVLAPHGAFVTGHGVVLPMAFPDFDGGEHTRRLHMGTAWSKRMIFEFSRSLLGETRPSECIAALFDDRARPPRVPEPQAARKVAQKLIAYPADQTPLLEFAQLHNISSRTLQRQFVASTGFTFSEWRAALRVSVAADLLAHDFRIGQVSQMVGFSATSSLTRAFKRHTGDTPSSFTSPRMHAVCEQQPPMIPATTTFARASDDIALWIYSGTATVTTPGYCRFMGAGETVTIPSGTSTRLDVSAGSVALPVPLAAAHDDLTLSDVLAASVNPLAAVELQRLSAQERADVEQVLVPSV”, which “soluble on expression in E. coli” value is on record?
Answer: The value was “not soluble”.

Question: Which “soluble on expression in E. coli” value does the source give for “MSLTESGSCSTARQAKQKRKSHSLSIRRTNSSEQERTGLPREMLEGQDSKLPSSVRSTLLELFGQIEREFENLYIENLELRREIDTLNERLAGEGQAIDGAELSKGQLKTKASHSTSQLSQKLKTTYKASTSKIVSSFKTTTSRAICQLVKEYIGHRDGIWDVSVTRTQPIVLGTASADHTAMLWSIETGKCLVKYAGHVGSVNSIKFHPSEQLALTASGDQTAHIWRYVVQLPTPQPVADTSQQISGEDEIECSDKDEPDIDGDVSSDCPTVRVPLTSLKSHQGVVIAADWLVGGKQVVTASWDRTANMYDVETSELVHSLTGHDQELTHCCTHPTQRLVVTSSRDTTFRLWDFRDPSIHSVNVFQGHTDTVTSAVFTVGDNVVSGSDDRTVKVWDLKNMRSPIATIRTDSAINRINVCVGQKIIALPHDNRQVRLFDMSGVRLARLPRSSRQGHRRMVCCSAWSEDHPICNLFTCGFDRQAIGWNINIPALLQEKEGHHHHHH” here?
Answer: Its value is “not soluble”.

Question: With “MIGGLFIYNHKGEVLISRVYRDDIGRNAVDAFRVNVIHARQQVRSPVTNIARTSFFHVKRSNIWLAAVTKQNVNAAMVFEFLYKMCDVMAAYFGKISEENIKNNFVLIYELLDEILDFGYPQNSETGALKTFITQQGIKSQHQTKEEQSQITSQVTGQIGWRREGIKYRRNELFLDVLESVNLLMSPQGQVLSAHVSGRVVMKSYLSGMPECKFGMNDKIVIEKQGKGTADETSKSGKQSIAIDDCTFHQCVRLSKFDSERSISFIPPDGEFELMRYRTTKDIILPFRVIPLVREVGRTKLEVKVVIKSNFKPSLLAQKIEVRIPTPLNTSGVQVICMKGKAKYKASENAIVWKIKRMAGMKESQISAEIELLPTNDKKKWARPPISMNFEVPFAPSGLKVRYLKVFEPKLNYSDHDVIKWVRYIGRSGIYETRC” as the sequence, how does the “soluble on expression in E. coli” value read?
Answer: Its value is “soluble”.

Question: With “MQALAAMPAPVAASVRIVLTDIDDTLTTEGRLPAGAYAALERLEQAGIVVVPITGRPAGWCDHIARMWPVRAVVGENGAFYYAYDRSARRMNAHYWADAATRAANRQALQAIRERVLREVPGTAVASDQDYRVADLAIDFCEDVPALPDSAVGRIVEIFHEAGAQAKVSSIHVNGWFGDYDKLTMTRTLFEREFGLSIDSALQHTLFIGDSPNDEPMFKFFPISVGVANIQSQLHRIQHRPAFVAAARGGDGFVEMAERLLANRG” as the sequence, how does the “soluble on expression in E. coli” value read?
Answer: Its value is “not soluble”.

Question: Which “soluble on expression in E. coli” value does the source give for “MGSDKIHHHHHHMVTETYINKLLAPIRRRITGMLTRAVVSGIVEDLQRQNLQVKMHADESADNIERFQNYGMSSYPPEGAEAIVAALGGALSGLVAIAVEDKKFRPKGESGDVFLYHLEGHKIRLTKDGKIILTAQDVIFEIENSFTISTTDVIFNASGSFTIISPETLIDGPLHVTGDISTDLGITAVNGITSNSVITGSDLSANNISYLGHIHKDAENRPTTAPE” here?
Answer: Its value is “not soluble”.

Question: With “MGSDKIHHHHHHMEELIQKALSSSNKVSSNSLIEKIIPVGGGCIHKAWSIHFQNGKRVFAKSNYIDNINMFKFERECLSVLKRFANESYICVPETLDLISYQNISILFLEWIDLKQCQQNVLGKGLALLHKSSSEWSKKNFGWEEEGFIGSSTQARGWKSNWGEFFVNYRLRPQLLQAKAWGVRVEDYEDVLIYLSSYLNDHQPKTSLVHGDLWSGNCGSTKNGLGSLYDPACYWADREVDISMTKLFGGFNREFYKGYEEIWPLNKFSKDRNDIYNLYHLLNHANIFGGSYKENSLKILKDLRSRV” as the sequence, how does the “soluble on expression in E. coli” value read?
Answer: Its value is “not soluble”.

Question: Which “soluble on expression in E. coli” value does the source give for “MGSDKIHHHHHHMMAQFEYSTLAHPQDIQQLEHILEQCFISALGGEEAYINMIGVENFRIIRRLEQVAGGLATLDMGQWWGGQRVPMTGIAVVGIAPEYRGSGAAIALMQHTLKELYDRGIAISALYPAVQSLYRKVGYEQGGSWCIWEIATQNIQVREQPLPLELVASINHEVFHELYQQQARQTHGYLDRHPAIWERIIQPNDKEIVYTYLIGTKDQPQGYIIFTQERTNNGEILFVKDWVLTTVAAAQTFWSFLASHRSQIQQVRWKSSAIDSLTLLLPEQTAKIQTTSRWLLRIIDVVKALELRGYPPGIQAELHLEIQDNLLTENNGKFILSVANGRGEVTKGGKGELQLDIRELAPLYTSLFTPYHLQIAGKLNGTETAILTATQIFAGASPWMADFF” here?
Answer: Its value is “not soluble”.

Question: For “MGSDKIHHHHHHMVLIRLRPCSAVEKDLIHACSPSASALVSKNEKAMKRFFLTTAILLSSVLASYADSLPSAVRDTVIRAGEKTIMIKDGEDDFEVIIQESMPSGDTIRNEKIFRGVYRNGRSIEQRFRNTLINRPNRDKEMPVWGTYGFGSFEWGELKVDDSHSDIGRSHSYRVSIQIFGDIYRLNKYLVLTYALGWDADIYRITDSKTLKNIDGVTTVVDVPGRAECTLTAAYLKAMPALAFNGVRSNLTVYIAPVLRAKVYSAATTDGPDGRLEKLRRVKLNTFSVEARAGINYRNAGIFFTYSLTPLFRSGKGPKLHPYTIGLSLSL”, which “soluble on expression in E. coli” value is on record?
Answer: Its value is “not soluble”.
